Experiments:
Assay in all cases: split reporter (BiFC, NanoBiT)
[1] = biological target: GLRaV-3 coat protein (CP), BiFC fusion (grapevine leafroll-associated virus 3 (isolate GP18))
[2] = biological target: GLRaV-3 silencing suppressor p20B, BiFC fusion (grapevine leafroll-associated virus 3 (isolate GP18))
[3] = biological target: GLRaV-3 heat shock protein 70 homolog (HSP70h), BiFC fusion (grapevine leafroll-associated virus 3 (isolate GP18))
[4] = biological target: GLRaV-3 transmembrane movement protein p5, BiFC fusion (grapevine leafroll-associated virus 3 (isolate GP18))

Substance	average MI diff [1]	average MI diff [2]	average MI diff [3]	average MI diff [4]
GLRaV-3 coat protein (CP), BiFC fusion (natural protein)	27	55.7		
GLRaV-3 heat shock protein 70 homolog (HSP70h), BiFC fusion (natural protein)	34.6	45.5	51.8	
GLRaV-3 minor coat protein (CPm), BiFC fusion (natural protein)		27.2		
GLRaV-3 silencing suppressor p20B, BiFC fusion (natural protein)		92.7		
GLRaV-3 transmembrane movement protein p5, BiFC fusion (natural protein)				114

— PMC9865355
